# Measurements reported in the Human Domainome abundance scans (Beltran et al. 2025).
# ± gives the uncertainty stated by the source.
# B1: Telomeric repeat-binding factor 2, residues 489 to 542; numbered along this chain, Q15554 (parent)
# chain: KQKWTVEESEWVKAGVQKYGEGNWAAISKNYPFVNRTAVMIKDRWRTMKRLGMN
# B2: Endonuclease CUE2, residues 9 to 47; numbered along this chain, P36075 (parent)
# chain: HESKLSILMDMFPAISKSKLQVHLLENNNDLDLTIGLLL
# Variants of: B1
# Test: abundance fitness (aPCA) (normalised: wild type 0, dead -1); higher = more abundant; growth selection in yeast, the domain comes from the species named
# Conditions: Homo sapiens
row,Variant,abundance fitness
1,G52D,-0.011 ± 0.13
2,G52E,-0.071 ± 0.1
3,G52F,-0.223 ± 0.059
4,G52H,-0.215 ± 0.13
5,G52I,-0.019 ± 0.065
6,G52K,-0.149 ± 0.13
7,G52L,-0.195 ± 0.054
8,G52N,0.049 ± 0.12
9,G52P,0.243 ± 0.1
10,G52Q,-0.201 ± 0.11
11,G52R,-0.119 ± 0.059
12,G52S,-0.358 ± 0.086
13,G52T,-0.1 ± 0.24
14,G52V,0.004 ± 0.076
15,G52W,-0.449 ± 0.11
16,G52Y,-0.485 ± 0.19
17,M53A,-0.134 ± 0.068
18,M53D,0.349 ± 0.093
19,M53E,0.01 ± 0.095
20,M53G,-0.007 ± 0.058
21,M53H,-0.249 ± 0.3
22,M53I,-0.141 ± 0.12

row,Variant,abundance fitness
1,M53K,-0.269 ± 0.19
2,M53L,0.026 ± 0.079
3,M53P,-0.147 ± 0.15
4,M53Q,-0.099 ± 0.099
5,M53R,-0.311 ± 0.072
6,M53S,-0.145 ± 0.1
7,M53T,-0.249 ± 0.16
8,M53V,-0.184 ± 0.07
9,M53W,-0.329 ± 0.088
10,M53Y,-0.686 ± 0.31
11,N54A,0.246 ± 0.11
12,N54D,-0.038 ± 0.22
13,N54F,-0.537 ± 0.28
14,N54G,0.344 ± 0.14
15,N54H,0.092 ± 0.37
16,N54I,-0.032 ± 0.12
17,N54S,-0.051 ± 0.13
18,N54T,0.544 ± 0.12
19,N54V,-0.075 ± 0.092
20,N54W,-0.166 ± 0.077
21,N54Y,-0.399 ± 0.16

# Variants of: B2
# Test: as above
# Conditions: Saccharomyces cerevisiae (strain ATCC 204508 / S288c)
row,Variant,abundance fitness
1,AESKLSILMDMFPAISKSKLQVHLLENNNDLDLTIGLLL [H1A],0.264 ± 0.093
2,CESKLSILMDMFPAISKSKLQVHLLENNNDLDLTIGLLL [H1C],0.351 ± 0.12
3,DESKLSILMDMFPAISKSKLQVHLLENNNDLDLTIGLLL [H1D],0.064 ± 0.36
4,EESKLSILMDMFPAISKSKLQVHLLENNNDLDLTIGLLL [H1E],0.361 ± 0.043
5,GESKLSILMDMFPAISKSKLQVHLLENNNDLDLTIGLLL [H1G],0.237 ± 0.037
6,KESKLSILMDMFPAISKSKLQVHLLENNNDLDLTIGLLL [H1K],0.312 ± 0.062
7,LESKLSILMDMFPAISKSKLQVHLLENNNDLDLTIGLLL [H1L],0.377 ± 0.045
8,MESKLSILMDMFPAISKSKLQVHLLENNNDLDLTIGLLL [H1M],0.255 ± 0.09
9,RESKLSILMDMFPAISKSKLQVHLLENNNDLDLTIGLLL [H1R],0.284 ± 0.035
10,SESKLSILMDMFPAISKSKLQVHLLENNNDLDLTIGLLL [H1S],0.174 ± 0.06
11,TESKLSILMDMFPAISKSKLQVHLLENNNDLDLTIGLLL [H1T],0.467 ± 0.062
12,VESKLSILMDMFPAISKSKLQVHLLENNNDLDLTIGLLL [H1V],0.28 ± 0.045
13,WESKLSILMDMFPAISKSKLQVHLLENNNDLDLTIGLLL [H1W],0.05 ± 0.039
14,HCSKLSILMDMFPAISKSKLQVHLLENNNDLDLTIGLLL [E2C],0.283 ± 0.11
15,HDSKLSILMDMFPAISKSKLQVHLLENNNDLDLTIGLLL [E2D],-0.133 ± 0.2
16,HGSKLSILMDMFPAISKSKLQVHLLENNNDLDLTIGLLL [E2G],-0.11 ± 0.039
17,HISKLSILMDMFPAISKSKLQVHLLENNNDLDLTIGLLL [E2I],0.14 ± 0.051
18,HKSKLSILMDMFPAISKSKLQVHLLENNNDLDLTIGLLL [E2K],0.153 ± 0.042
19,HLSKLSILMDMFPAISKSKLQVHLLENNNDLDLTIGLLL [E2L],0.109 ± 0.04
20,HMSKLSILMDMFPAISKSKLQVHLLENNNDLDLTIGLLL [E2M],0.19 ± 0.061
21,HNSKLSILMDMFPAISKSKLQVHLLENNNDLDLTIGLLL [E2N],0.167 ± 0.078
22,HPSKLSILMDMFPAISKSKLQVHLLENNNDLDLTIGLLL [E2P],-0.035 ± 0.066
23,HQSKLSILMDMFPAISKSKLQVHLLENNNDLDLTIGLLL [E2Q],0.113 ± 0.042

row,Variant,abundance fitness
1,HRSKLSILMDMFPAISKSKLQVHLLENNNDLDLTIGLLL [E2R],0.13 ± 0.045
2,HSSKLSILMDMFPAISKSKLQVHLLENNNDLDLTIGLLL [E2S],-0.319 ± 0.067
3,HTSKLSILMDMFPAISKSKLQVHLLENNNDLDLTIGLLL [E2T],0.157 ± 0.054
4,HVSKLSILMDMFPAISKSKLQVHLLENNNDLDLTIGLLL [E2V],-0.195 ± 0.039
5,HWSKLSILMDMFPAISKSKLQVHLLENNNDLDLTIGLLL [E2W],-0.349 ± 0.068
6,HEAKLSILMDMFPAISKSKLQVHLLENNNDLDLTIGLLL [S3A],-0.156 ± 0.04
7,HECKLSILMDMFPAISKSKLQVHLLENNNDLDLTIGLLL [S3C],-0.146 ± 0.38
8,HEEKLSILMDMFPAISKSKLQVHLLENNNDLDLTIGLLL [S3E],-0.106 ± 0.043
9,HEGKLSILMDMFPAISKSKLQVHLLENNNDLDLTIGLLL [S3G],-0.145 ± 0.036
10,HEHKLSILMDMFPAISKSKLQVHLLENNNDLDLTIGLLL [S3H],0.014 ± 0.068
11,HEKKLSILMDMFPAISKSKLQVHLLENNNDLDLTIGLLL [S3K],-0.094 ± 0.097
12,HELKLSILMDMFPAISKSKLQVHLLENNNDLDLTIGLLL [S3L],-0.184 ± 0.048
13,HEMKLSILMDMFPAISKSKLQVHLLENNNDLDLTIGLLL [S3M],-0.042 ± 0.073
14,HEPKLSILMDMFPAISKSKLQVHLLENNNDLDLTIGLLL [S3P],-0.453 ± 0.12
15,HEQKLSILMDMFPAISKSKLQVHLLENNNDLDLTIGLLL [S3Q],-0.057 ± 0.051
16,HERKLSILMDMFPAISKSKLQVHLLENNNDLDLTIGLLL [S3R],-0.329 ± 0.04
17,HETKLSILMDMFPAISKSKLQVHLLENNNDLDLTIGLLL [S3T],-0.344 ± 0.063
18,HEVKLSILMDMFPAISKSKLQVHLLENNNDLDLTIGLLL [S3V],-0.329 ± 0.047
19,HEWKLSILMDMFPAISKSKLQVHLLENNNDLDLTIGLLL [S3W],-0.428 ± 0.054
20,HESALSILMDMFPAISKSKLQVHLLENNNDLDLTIGLLL [K4A],-0.117 ± 0.04
21,HESCLSILMDMFPAISKSKLQVHLLENNNDLDLTIGLLL [K4C],-0.061 ± 0.061
22,HESDLSILMDMFPAISKSKLQVHLLENNNDLDLTIGLLL [K4D],0.115 ± 0.059
23,HESELSILMDMFPAISKSKLQVHLLENNNDLDLTIGLLL [K4E],-0.011 ± 0.034

row,Variant,abundance fitness
1,HESFLSILMDMFPAISKSKLQVHLLENNNDLDLTIGLLL [K4F],-0.259 ± 0.086
2,HESGLSILMDMFPAISKSKLQVHLLENNNDLDLTIGLLL [K4G],-0.241 ± 0.033
3,HESHLSILMDMFPAISKSKLQVHLLENNNDLDLTIGLLL [K4H],0.098 ± 0.19
4,HESILSILMDMFPAISKSKLQVHLLENNNDLDLTIGLLL [K4I],-0.127 ± 0.17
5,HESLLSILMDMFPAISKSKLQVHLLENNNDLDLTIGLLL [K4L],-0.13 ± 0.047
6,HESMLSILMDMFPAISKSKLQVHLLENNNDLDLTIGLLL [K4M],0.188 ± 0.11
7,HESNLSILMDMFPAISKSKLQVHLLENNNDLDLTIGLLL [K4N],-0.023 ± 0.1
8,HESPLSILMDMFPAISKSKLQVHLLENNNDLDLTIGLLL [K4P],-0.16 ± 0.059
9,HESQLSILMDMFPAISKSKLQVHLLENNNDLDLTIGLLL [K4Q],-0.023 ± 0.052
10,HESRLSILMDMFPAISKSKLQVHLLENNNDLDLTIGLLL [K4R],-0.038 ± 0.035
11,HESSLSILMDMFPAISKSKLQVHLLENNNDLDLTIGLLL [K4S],-0.001 ± 0.065
12,HESVLSILMDMFPAISKSKLQVHLLENNNDLDLTIGLLL [K4V],-0.37 ± 0.047
13,HESWLSILMDMFPAISKSKLQVHLLENNNDLDLTIGLLL [K4W],-0.572 ± 0.057
14,HESYLSILMDMFPAISKSKLQVHLLENNNDLDLTIGLLL [K4Y],0.127 ± 0.21
15,HESKASILMDMFPAISKSKLQVHLLENNNDLDLTIGLLL [L5A],-0.708 ± 0.068
16,HESKCSILMDMFPAISKSKLQVHLLENNNDLDLTIGLLL [L5C],-0.306 ± 0.066
17,HESKDSILMDMFPAISKSKLQVHLLENNNDLDLTIGLLL [L5D],-0.928 ± 0.25
18,HESKESILMDMFPAISKSKLQVHLLENNNDLDLTIGLLL [L5E],-0.683 ± 0.076
19,HESKGSILMDMFPAISKSKLQVHLLENNNDLDLTIGLLL [L5G],-0.817 ± 0.055
20,HESKHSILMDMFPAISKSKLQVHLLENNNDLDLTIGLLL [L5H],-1 ± 0.19
21,HESKKSILMDMFPAISKSKLQVHLLENNNDLDLTIGLLL [L5K],-0.771 ± 0.27
22,HESKMSILMDMFPAISKSKLQVHLLENNNDLDLTIGLLL [L5M],-0.031 ± 0.065
23,HESKPSILMDMFPAISKSKLQVHLLENNNDLDLTIGLLL [L5P],-0.738 ± 0.18
